# Measurements published in patent US12280095B2, “Tissue modifier and uses therefor” (Fibrosoft Pte Ltd, priority 2021, dated 2025).
# Test system: Dupuytren's disease
# Assay: Treatment of Dupuytren's disease patients by intralesional injection of tPA in combination with hyaluronidase
# Format: in vivo, human
molecule,measurement,setting,value
"ALTEPLASE: tissue plasminogen activator (tPA), collagenase-producing agent; comparator when administered on its own (protein, UniProt P00750 36-562, looked up) Tissue-type plasminogen …: SYQVICRDEKTQMIYQQHQSWLRPVLRSNRVEYCWCNSGRAQCHSVPVKSCSEPRCFNGGTCQQALYFSDFVCQCPEGFAGKCCEIDTRATCYEDQGISYRGTWSTAESGAECTNWNSSALAQKPYSGRRPDAIRLGLGNHNYCRNPDRDSKPWCYVFKAGKYSSEFCSTPACSEGNSDCYFGNGSAYRGTHSLTESGASCLPWNSMILIGKVYTAQNPSAQALGLGKHNYCRNPDGDAKPWCHVLKNRRLTWEYCDVPSCSTCGLRQYSQPQFRIKGGLFADIASHPWQAAIFAKHRRSPGERFLCGGILISSCWILSAAHCFQERFPPHHLTVILGRTYRVVPGEEEQKFEVEKYIVHKEFDDDTYDNDIALLQLKSDSSRCAQESSVVRTVCLPPADLQLPDWTECELSGYGKHEALSPFYSERLKEAHVRLYPSSRCTSQHLLNRTVTDNMLCAGDTRSGGPQANLHDACQGDSGGPLVCLNDGRMTLVGIISWGLGCGQKDVPGVYTKVTNYLDWIRDNMRP","mean time required to observe discernible reduction in volume of the fibromatosis, reduction of contracture and improvement in the range of motion","ALTEPLASE administered on its own, patients with Dupuytren's disease",4-6 weeks
same,"time required to obtain similar effects (volume reduction, flexion improvement)",ALTEPLASE alone,4-6 weeks
